Source: patent US20220306702

Assays:
[1] = molecular target: 64 other human C4 ZF containing proteins
[2] = molecular target: GST-TAB2 protein substrate [GST: P08515]

B1: wild-type NleE (EPEC NleE) (protein)
chain: MINPVTNTQGVSPINTKYAEHVVKNIYPEIKHDYFNESPNIYDKKYISGITRGVAELKQEEFVNEKARRFSYMKTMYSVCPEAFEPISRNEASTPEGSWLTVISGKRPMGQFSVDSLYNPDLHALCELPDICCKIFPKENNDFLYIVVVYRNDSPLGEQRANRFIELYNIKRDIMQELNYELPELKAVKSEMIIAREMGEIFSYMPGEIDSYMKYINNKLSKIE
[1]
  modification by NleE (cysteine methylation assay): But few of them were modified by NleE

B2: NLeE from Shigella (Shigella NleE) (protein)
chain: GSMRKKRRQRRRSIEIKMISPIKNIKNVFPINTANTEYIVRNIYPRVEHGYFNESPNIYDKKYISGITRSMAQLKIEEFINEKSRRLNYMKTMYSPCPEDFQPISRDEASTPEGSWLTVISGKRPMGQFSVDSLYHPDLHALCELPEISCKIFPKENSDFLYIIVVFRNDSPQGELRANRFIELYDIKREIMQVLRDESPELKSIKSEIIIAREMGELFSYASEEIDSYIKQMNDRLSQIKARMPVTGSRS
[2]
  methylase activity (MTase glo assay): the Shigella NleE showed methylase activity at levels comparable to that seen for the EPEC NleE
